We go through two molecules from paper PMC3834822, “Structure of an ‘open’ clamp type II topoisomerase-DNA complex provides a mechanism for DNA capture and transport”.

For data set [1], the target named is ParE-ParC55 fusion protein (topo IV) (Streptococcus pneumoniae 7785, UniProt Q59961 1-647+P72525:1-488, internal_change). Put plainly: X-ray crystallography (3.7 A); 10 mM MgCl2, 2 mM levofloxacin added; drug-free complex; G-gate DNA bent, uncleaved; second linear B-form duplex at C-gate helices (ParC R468, K464, N461, H196); no ATP; Crystallization: protein in 20 mM Tris-HCl pH 7.5, 100 mM NaCl, 1 mM beta-mercaptoethanol, 0.05% Na azide, 10 mM MgCl2, 2 mM levofloxacin; 4I3H reservoir 50 mM. The following applies: protein: recombinant; tags: C-terminal His6; chain copies: 2; 34 bp duplex; 4-bp stagger between cleavage sites.

Data set [2] has as its target ParE full-length;ParC55 (Streptococcus pneumoniae;Streptococcus …, UniProt Q59961;P72525 1-647;1-488, |). Put plainly: X-ray crystallography (6.5 A); 10 mM MgCl2, 2 mM levofloxacin; cleavage complex; Crystallization: protein in 20 mM Tris-HCl pH 7.5, 100 mM NaCl, 1 mM beta-mercaptoethanol, 0.05% Na azide, 10 mM MgCl2, 2 mM levofloxacin; 4I3H reservoir 50 mM. The following applies: protein: recombinant;recombinant; chain copies: 2;2; 26mer duplex; 4-bp stagger between cleavage sites.

B1: 34mer V-site DNA (dsDNA)
DNA 1: CAAAGGCGGTAATACGGTTATCCACAGAATCAGG
DNA 2: CCTGATTCTGTGGATAACCGTATTACCGCCTTTG
On to B1, for which, in data set [1], the binding result is listed as “binds”.

B2: 26mer E-site DNA (dsDNA)
DNA 1: AGGTCATGAATGACTATGCACGTAAA
DNA 2: TTTACGTGCATAGTCATTCATGACCT
For B2, in data set [2], the binding result is “binds”.
